According to patent publication US20230110958A1 (Regeneron, published 2023):
Each block holds one binder with its values, some of them ahead of it.

Key:
Assay in all cases: cell-based or functional assay
[1] = target: T1, murine IL27 receptor (IL27Ra and gp130) on mouse cells (MC9/STAT3-Luc reporter cells; splenic CD4+ T cells) (mouse, UniProt O70394 25-623; Q00560 23-917)
T1 sequence (looked up) 1: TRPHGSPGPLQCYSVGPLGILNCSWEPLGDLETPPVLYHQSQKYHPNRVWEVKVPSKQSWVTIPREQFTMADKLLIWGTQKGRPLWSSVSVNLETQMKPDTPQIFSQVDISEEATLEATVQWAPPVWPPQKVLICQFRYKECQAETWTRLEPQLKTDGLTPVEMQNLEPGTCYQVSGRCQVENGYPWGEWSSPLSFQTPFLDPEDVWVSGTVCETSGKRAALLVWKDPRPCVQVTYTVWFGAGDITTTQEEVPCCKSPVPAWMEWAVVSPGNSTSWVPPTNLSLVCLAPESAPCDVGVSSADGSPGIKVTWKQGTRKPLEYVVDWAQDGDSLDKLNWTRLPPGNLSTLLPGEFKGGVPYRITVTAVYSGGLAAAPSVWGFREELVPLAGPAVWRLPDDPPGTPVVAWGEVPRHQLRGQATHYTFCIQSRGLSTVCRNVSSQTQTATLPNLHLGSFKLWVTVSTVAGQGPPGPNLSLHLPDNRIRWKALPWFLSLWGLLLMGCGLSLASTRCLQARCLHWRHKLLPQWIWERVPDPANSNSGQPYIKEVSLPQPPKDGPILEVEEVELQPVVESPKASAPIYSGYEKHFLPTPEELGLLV
T1 sequence (looked up) 2: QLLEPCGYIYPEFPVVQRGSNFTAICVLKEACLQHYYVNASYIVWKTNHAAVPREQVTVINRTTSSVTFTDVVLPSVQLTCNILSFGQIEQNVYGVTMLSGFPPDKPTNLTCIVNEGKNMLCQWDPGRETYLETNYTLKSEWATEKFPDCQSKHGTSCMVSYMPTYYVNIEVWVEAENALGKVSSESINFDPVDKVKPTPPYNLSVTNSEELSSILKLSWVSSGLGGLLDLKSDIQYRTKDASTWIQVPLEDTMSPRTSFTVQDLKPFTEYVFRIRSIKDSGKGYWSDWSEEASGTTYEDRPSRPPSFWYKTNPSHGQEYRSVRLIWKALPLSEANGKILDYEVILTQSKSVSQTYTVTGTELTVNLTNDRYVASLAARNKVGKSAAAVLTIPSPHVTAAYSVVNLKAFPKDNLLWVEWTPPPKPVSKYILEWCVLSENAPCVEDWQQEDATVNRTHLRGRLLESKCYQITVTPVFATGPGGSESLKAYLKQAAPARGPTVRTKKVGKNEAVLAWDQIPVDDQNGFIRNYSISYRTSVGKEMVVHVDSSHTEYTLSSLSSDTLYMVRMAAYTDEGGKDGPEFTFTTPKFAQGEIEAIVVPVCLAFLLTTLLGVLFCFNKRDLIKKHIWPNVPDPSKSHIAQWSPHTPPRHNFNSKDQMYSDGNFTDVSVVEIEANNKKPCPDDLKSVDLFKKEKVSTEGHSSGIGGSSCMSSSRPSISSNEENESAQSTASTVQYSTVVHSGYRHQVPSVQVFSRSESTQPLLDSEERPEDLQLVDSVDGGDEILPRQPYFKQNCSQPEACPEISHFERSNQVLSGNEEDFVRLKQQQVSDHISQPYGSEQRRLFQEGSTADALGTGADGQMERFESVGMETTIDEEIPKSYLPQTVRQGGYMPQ

[2] = target: T1, murine IL27 receptor (IL27Ra and gp130) …; remark: listed apart in the source
[3] = target: human IL27 receptor (IL27Ra and gp130) on NCI-H929/GAS-Luc cells (human) (UniProt Q6UWB1)
human IL27 receptor (IL27Ra and gp130) on NCI-H929/GAS-Luc cells (human), sequence (Q6UWB1 33-636, chain 1 of 2): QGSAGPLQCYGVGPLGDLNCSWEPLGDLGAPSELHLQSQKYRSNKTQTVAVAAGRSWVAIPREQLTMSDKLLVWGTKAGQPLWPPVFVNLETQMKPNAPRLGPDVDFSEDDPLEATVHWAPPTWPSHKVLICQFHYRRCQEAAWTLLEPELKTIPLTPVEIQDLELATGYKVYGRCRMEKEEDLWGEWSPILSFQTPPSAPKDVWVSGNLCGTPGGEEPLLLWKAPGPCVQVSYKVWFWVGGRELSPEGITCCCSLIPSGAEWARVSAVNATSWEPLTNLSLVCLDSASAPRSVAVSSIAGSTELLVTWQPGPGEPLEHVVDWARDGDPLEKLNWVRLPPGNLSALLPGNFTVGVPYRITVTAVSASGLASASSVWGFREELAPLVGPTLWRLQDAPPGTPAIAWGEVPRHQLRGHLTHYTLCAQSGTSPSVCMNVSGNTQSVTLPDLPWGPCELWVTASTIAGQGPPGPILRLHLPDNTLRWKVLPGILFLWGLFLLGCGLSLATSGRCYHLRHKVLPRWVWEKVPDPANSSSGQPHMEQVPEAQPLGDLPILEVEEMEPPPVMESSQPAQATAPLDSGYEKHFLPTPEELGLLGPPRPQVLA
human IL27 receptor (IL27Ra and gp130) on NCI-H929/GAS-Luc cells (human), sequence (chain, as listed by the source, chain 2 of 2): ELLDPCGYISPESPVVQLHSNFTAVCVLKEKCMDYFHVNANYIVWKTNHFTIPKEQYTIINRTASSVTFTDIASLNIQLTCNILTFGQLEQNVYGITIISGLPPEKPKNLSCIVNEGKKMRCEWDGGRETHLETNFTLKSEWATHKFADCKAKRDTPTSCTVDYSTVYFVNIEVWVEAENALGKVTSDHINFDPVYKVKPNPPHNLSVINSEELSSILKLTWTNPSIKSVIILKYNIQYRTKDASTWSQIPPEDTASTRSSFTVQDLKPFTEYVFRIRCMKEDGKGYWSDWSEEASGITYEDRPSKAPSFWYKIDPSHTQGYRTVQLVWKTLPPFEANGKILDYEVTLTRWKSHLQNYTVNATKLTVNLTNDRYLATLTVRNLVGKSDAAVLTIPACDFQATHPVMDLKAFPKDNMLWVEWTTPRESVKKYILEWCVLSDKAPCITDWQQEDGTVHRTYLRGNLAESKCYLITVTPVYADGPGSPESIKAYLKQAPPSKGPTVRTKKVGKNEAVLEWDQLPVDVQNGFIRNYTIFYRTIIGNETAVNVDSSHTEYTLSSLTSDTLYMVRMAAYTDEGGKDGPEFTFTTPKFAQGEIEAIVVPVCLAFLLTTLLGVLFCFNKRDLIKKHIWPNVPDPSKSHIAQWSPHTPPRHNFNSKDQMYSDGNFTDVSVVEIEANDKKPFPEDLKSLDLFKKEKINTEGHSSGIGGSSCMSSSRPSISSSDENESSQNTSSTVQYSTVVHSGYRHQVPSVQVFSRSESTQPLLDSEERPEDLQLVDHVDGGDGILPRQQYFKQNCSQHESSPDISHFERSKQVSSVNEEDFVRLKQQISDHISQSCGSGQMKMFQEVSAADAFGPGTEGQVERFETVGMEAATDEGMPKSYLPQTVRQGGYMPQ

EC50, luciferase activity, MC9/STAT3-Luc reporter cells [1]: ~0.0032 nM | EC50, phosphorylation of STAT1 in CD4+ T-cells [1]: ~0.0224 µg/mL
B1: IL27M2, Mouse p28-(GGGGS)3-Fc (Knob) with Mouse EBI3-(GGGGS)3-Fc (Hole/star) (Fc fusion)
chain 1: FPTDPLSLQELRREFTVSLYLARKLLSEVQGYVHSFAESRLPGVNLDLLPLGYHLPNVSLTFQAWHHLSDSERLCFLATTLRPFPAMLGGLGTQGTWTSSEREQLWAMRLDLRDLHRHLRFQVLAAGFKCSKEEEDKEEEEEEEEEEKKLPLGALGGPNQVSSQVSWPQLLYTYQLLHSLELVLSRAVRDLLLLSLPRRPGSAWDSGGGGSGGGGSGGGGSESKYGPPCPPCPAPPVAGPSVFLFPPKPKDTLMISRTPEVTCVVVDVSQEDPEVQFNWYVDGVEVHNAKTKPREEQFNSTYRVVSVLTVLHQDWLNGKEYKCKVSNKGLPSSIEKTISKAKGQPREPQVYTLPPSQEEMTKNQVSLWCLVKGFYPSDIAVEWESNGQPENNYKTTPPVLDSDGSFFLYSRLTVDKSRWQEGNVFSCSVMHEALHNHYTQKSLSLSLGK
chain 2: YTETALVALSQPRVQCHASRYPVAVDCSWTPLQAPNSTRSTSFIATYRLGVATQQQSQPCLQRSPQASRCTIPDVHLFSTVPYMLNVTAVHPGGASSSLLAFVAERIIKPDPPEGVRLRTAGQRLQVLWHPPASWPFPDIFSLKYRLRYRRRGASHFRQVGPIEATTFTLRNSKPHAKYCIQVSAQDLTDYGKPSDWSLPGQVESAPHKPGGGGSGGGGSGGGGSESKYGPPCPPCPAPPVAGPSVFLFPPKPKDTLMISRTPEVTCVVVDVSQEDPEVQFNWYVDGVEVHNAKTKPREEQFNSTYRVVSVLTVLHQDWLNGKEYKCKVSNKGLPSSIEKTISKAKGQPREPQVYTLPPSQEEMTKNQVSLSCAVKGFYPSDIAVEWESNGQPENNYKTTPPVLDSDGSFFLVSRLTVDKSRWQEGNVFSCSVMHEALHNRFTQKSLSLSPGK

EC50, luciferase activity, MC9/STAT3-Luc reporter cells [1]: ~0.48 nM | EC50, phosphorylation of STAT1 in CD4+ T-cells [1]: ~2 µg/mL | EC50 (M), STAT3 luciferase, MC9 cells [2]: 1.01e-09 M | FOLD INDUCTION, STAT3 luciferase, MC9 cells [2]: 2.95 fold
B2: IL27M1, Mouse EBI3-(GGGS)4-p28-(GGGGS)3-Fc (Fc fusion)
chain: YTETALVALSQPRVQCHASRYPVAVDCSWTPLQAPNSTRSTSFIATYRLGVATQQQSQPCLQRSPQASRCTIPDVHLFSTVPYMLNVTAVHPGGASSSLLAFVAERIIKPDPPEGVRLRTAGQRLQVLWHPPASWPFPDIFSLKYRLRYRRRGASHFRQVGPIEATTFTLRNSKPHAKYCIQVSAQDLTDYGKPSDWSLPGQVESAPHKPGGGSGGGSGGGSGGGSFPTDPLSLQELRREFTVSLYLARKLLSEVQGYVHSFAESRLPGVNLDLLPLGYHLPNVSLTFQAWHHLSDSERLCFLATTLRPFPAMLGGLGTQGTWTSSEREQLWAMRLDLRDLHRHLRFQVLAAGFKCSKEEEDKEEEEEEEEEEKKLPLGALGGPNQVSSQVSWPQLLYTYQLLHSLELVLSRAVRDLLLLSLPRRPGSAWDSGGGGSGGGGSGGGGSESKYGPPCPPCPAPPVAGPSVFLFPPKPKDTLMISRTPEVTCVVVDVSQEDPEVQFNWYVDGVEVHNAKTKPREEQFNSTYRVVSVLTVLHQDWLNGKEYKCKVSNKGLPSSIEKTISKAKGQPREPQVYTLPPSQEEMTKNQVSLTCLVKGFYPSDIAVEWESNGQPENNYKTTPPVLDSDGSFFLYSRLTVDKSRWQEGNVFSCSVMHEALHNHYTQKSLSLSLGK

EC50 (M), GAS luciferase, NCI-H929/GAS-Luc cells [3]: 3.34e-10 M | FOLD INDUCTION, GAS luciferase, NCI-H929/GAS-Luc cells [3]: 12.3 fold
B3: Recombinant human IL27 (R&D Systems cat# 2526-IL-010/CF), Human EBI3-…-Human p28-6-His tag (ligand)
chain: RKGPPAALTLPRVQCRASRYPIAVDCSWTLPPAPNSTSPVSFIATYRLGMAARGHSWPCLQQTPTSTSCTITDVQLFSMAPYVLNVTAVHPWGSSSSFVPFITEHIIKPDPPEGVRLSPLAERQLQVQWEPPGSWPFPEIFSLKYWIRYKRQGAARFHRVGPIEATSFILRAVRPRARYYVQVAAQDLTDYGELSDWSLPATATMSLGKGSGSSRGGSGSGGSGGGGSKLAGVWGFPRPPGRPQLSLQELRREFTVSLHLARKLLSEVRGQAHRFAESHLPGVNLYLLPLGEQLPDVSLTFQAWRRLSDPERLCFISTTLQPFHALLGGLGTQGRWTNMERMQLWAMRLDLRDLQRHLRFQVLAAGFNLPEEEEEEEEEEEEERKGLLPGALGSALQGPAQVSWPQLLSTYRLLHSLELVLSRAVRELLLLSKAGHSVWPLGFPTLSPQPHHHHHH
